The source of these data is patent US20110275699A1, “Treatment For Obesity And Diabetes” (University of California, priority 2010, published 2011).

The assay deals with FLAG-tagged USF-1 (wild type, overexpressed in cells) (UniProt P22415). The assay is described as follows: cell-based or functional assay.
Sequence of UniProt P22415 (P22415 whole entry): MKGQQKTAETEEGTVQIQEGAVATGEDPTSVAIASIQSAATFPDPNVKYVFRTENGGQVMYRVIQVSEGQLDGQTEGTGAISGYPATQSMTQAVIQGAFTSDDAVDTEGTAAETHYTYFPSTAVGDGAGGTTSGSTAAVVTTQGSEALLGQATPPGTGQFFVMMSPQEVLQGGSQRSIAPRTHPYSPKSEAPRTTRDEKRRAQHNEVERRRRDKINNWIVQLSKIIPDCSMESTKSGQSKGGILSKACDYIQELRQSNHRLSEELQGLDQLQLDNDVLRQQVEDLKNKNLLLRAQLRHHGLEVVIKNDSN

For the substance “P/CAF, overexpressed in cells (from UniProt Q92831 1-832) (enzyme)”, the FAS promoter activity (-444 FAS-Luc reporter) turned out to be 2 fold.

The substance “HDAC9, overexpressed in cells (from UniProt Q9UKV0 1-1011) (enzyme)” had an FAS promoter activity (-444 FAS-Luc reporter) of 50 % decrease.
